# What was measured:
# [1] = target: urokinase-type plasminogen activator receptor (uPAR) on HT 1080 cells (human (endogenous in HT 1080)) (UniProt Q03405); test: radioligand binding
# [2] = target: human uPAR overexpressed on MCF-7 cells (clone M5) (human) (UniProt Q03405); test: radioligand binding
substance,measurement,setting,value
^125I-DIP-uPA (radioiodinated two chain urokinase-type plasminogen activator inactivated with diisopropylfluorophosphate) (ligand),Kd,[1],1.2 nM
same,Kd,[2],1.2 nM
